In the nanobody polyreactivity screen of Harvey et al. (2022):

Assay: yeast display, Sf9 membrane polyspecificity reagent, FACS + sequencing; frameworks hold sequencing errors
Procedure, shortened: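 Synthetic nanobody libraries on Saccharomyces cerevisiae BJ5465 were galactose-induced for 36–48 hours, stained 1 hour at 4 °C with 10% biotinylated, detergent-solubilized Sf9 membrane reagent and enriched on streptavidin microbeads. FACS then separated cells into low and high (top ~1%) gates by anti-HA (expression) and streptavidin (reagent binding) fluorescence. Genes were colony-PCR amplified, MiSeq 2 × 250 sequenced and CDR-length filtered. A clone's polyreactivity label is that of its gate of origin.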

| Sequence | polyreactivity (PSR sort gate) |
| --- | --- |
| QVQLGESGGGLVQAGGSLRLSCAASGSTFPVYAMGWSRQAPGKEWELVAAISSGGTTNYADSVKGRFTISRDNAKNTVYLQRNSLKPEDTAVYYCAADDWYYHFLVSSSAFDYWGQGTQVTVSS | high polyreactivity |
| QVQLVESGGGLVQAGGSLRLSCAASGSTFAYNDMGWYRQAPGKERELVADIRSGGNTNYADSVKGRFTISRDNAKNTVYLQMNSLKPEDTAVYYCASDGYRIDVYHPDYRYDYWGQGTQVTVSS | low polyreactivity |
| QDQLGDSGGGLVQAGGSLRLSCAASGLTFYRYAMGWYRQAPGKERELVAAIRWNSGSTYYADSVKGRFTISRVNAKNTVYLQMNSLKPEDTAVYYCAATAIYPSAWRMAYWGQGTQVTVSS | high polyreactivity |
| QVQLVESGGGLVQAGGSLRLSCAASGGTFTHNAMGWYRQAPGKDWELVAAISRSGGSTSYADSVKGRFTISRYNAKNTVYLQMNSLKPEDTAVYYCADRISRQRSYSRDYWGQGNQVTVSS | high polyreactivity |
| QVQLVESGGGLVQAGRSLRLSCAASGSTFDGYAMGWYRQAPGKERELVAAISYSGSSTYYADSVKGRFTNSRDNAKNTVYLQMNSLKPEDTAVYYCAVDDTHPFGPDGGGDYWGQGTQVTVSS | low polyreactivity |
| QVQLVESGGGLVQAGGSLRLSCAASGFIFRYYAMGWYRQAPGNERELVAAISYSGGSTYYADSVKGRFTISRDNAKNTVYLQMNSLKPEDTAVYYGAAVLRTRDHPQPNYEYWGQGTQVTVSS | high polyreactivity |
| QVQLVESGGGIVQAGGSLRLSCAASGRIFIWYDMGWYRQAPGKERELVAAITQSDDITYYADSVKGRFTISLDNAKNTVYLQMNSLKPEDTAVYYCAVDKPYPYRIIIWYEYDYWGQGTQVSVSS | low polyreactivity |
| QVQLVESGGGLVQAGGSLRLSCAASGFILDYNAMGWSRQAPGKERELVASIDSGGGTNYADSVKGRFTISRDNAKNTVYLQMNSLKPEDTAVYYCAADVTLWYDYGGQGTQVTVSS | low polyreactivity |
| QVQLVESGGGLVQAGGSLRLSCAASGSTFVHNAMGWYRQAPGKERELVARISFRSGRTYYADSVKGRFTISRDNAKNTVYLQMNSLKAEDTAVYYCNAVLYGQYKYDYWGQGTQVTVSS | high polyreactivity |
| QVQLVESGGGLVQAGGSLRISCAASGIIFDRYVMGWYRQAPGKERELVATITRSVNTDYADSVKGRFTISRDNAKNTVYLQMNSLKPEDTAVYYCAARKYYYFPVAYDYWGQGTQVTVSS | high polyreactivity |
| QVQLVESGGGLVQAGGSLRLRCAASGITTRTYAMGWYRQAPGKERELVAAISDSGDRTYYADSVKGRFTISRDKAKNTVYFQMNSVKPEDTAVYYCAVDGPGPRCEFWGQGTKVTVSS | low polyreactivity |
| QVQLVESGGGLVQAGGSLRLSCASSGYILRSNAMVWYRQAPGKEREFVAAITYSGGTTYYADSVKGRFTISRDNAKNTVYLQMNSLKPEDTAVYYCNADYGYYKLDYWGQGTQVTVSS | low polyreactivity |
| QVQLVESGGGLVQAGGSLRLSCAASGFIFAYYAMGWYRQAPGKERELVAAITWSGGITYYADSVKGRFTISRDNAKNTVYLQMNSLKPEDTAVYYCNRAWSSHRYYYWGQGTQVTVSS | high polyreactivity |
| QVQLVESGGGLVQAGGSLRLSSAASGRTLVNYAMGCYRQAPGKERELVAAISYSGGSTYYADSVKGRFTISRDYAKNTVYLQMNSLKPEDTAVYYCAAYYYQRYDYWGQGTQVTVSS | high polyreactivity |
| QVQLVESGGGLVQAGGSLRLSCAATGSTIEANTMGWYRQAPGKERELVASITTSGGSTNYADSVKGRFTISRDNAKNTVYLQMNSLKPEDTAVYYCAVRSTYARWNWRTADSSRDYWGQGTQVTVSS | low polyreactivity |
| QVQLQESGGVQAGGSLRLSSAASSYISRSDVMGWYRQAPGKERELVATINNGTITYYADSVKGRFTISRDNAKNTVYLQMNSLKPEDTAVHYFAVVQSDTDSLYYWGHGTQVTVSS | low polyreactivity |
| QDQLVESAGGLVQAGGSLRLSCAASGSNFYHYAMGWYRQAHGKERELVAAISQSGGGTYYADSVKGRFTISRDNAKNTVYLQMNSLKPEDTAVYYFAAKGRHNYYYWGQGTLVTVSS | high polyreactivity |
| QVQLVESGGGLVQAGGSLRLISAASGSIFDEYAMGWYRQAPGKERELVAAISSSGTSTYYADSVKGRFTISRDNAKNTVYLQMNSLKPEYTAVYYCAARSAFLKSGYLMDYWGHGTQVTVSS | low polyreactivity |
| QVQLVESGGGLVQAGGSLRLSCAASGLTFRRYAMGWYRQAPGKDRELVAAISRGDNTNYADSVKGRFTISRDNAKNTVYLQMTSLKPEDTAVYFCAPRLWIRGNFNYWGQATQVTVSS | high polyreactivity |
| QVQLVESGGGLVQAGGSLRLSCASSGFTFSIYAMGWYRQAPGKERELVAAISSSGGITYYADAVKGRFTISRDNAKNTVYLQMKSLKPEDTAVYYWNKYFKTFYVSYLHDYWGQGTQVSVSS | high polyreactivity |
| QVQLVESGGGLVQAGGSLRLSCAASGSTFGRYDMGSYRQAPGKERELVAAISRSGGGTYYADSVKGRFTISRDNAKNTVYLQMNSLKPEDTAVYYCAADYRDYPDSAYYYWGQGTQVTVSS | low polyreactivity |
| QVQLVESGGGLVQAGGSLRLSCAASGSIYGLNAMGWYRQAPGKESELVAAITWSGGSSTYYADSVKGRFTISRDNAKNTVYLQMNSLKPVDTAVYYCAAGRVFIPYYFRFYYWGQGTQVSVSS | high polyreactivity |

| Sequence | polyreactivity (PSR sort gate) |
| --- | --- |
| QVQLLESGGGLVQAGVSLRLSCAASGRIFPYNAMGRYRQAAGKVREFVAAIYYSGGRTYYADSVKGRFTITRDNAKNTVYIQMNSLKPEDTAVYFCDISRYDYTKTEGGYWGQGTQVTVSS | low polyreactivity |
| QVQLVESGGVLVQAGGSLRLSCAASGRIFPSYDMGWYRQAPAKERELVDTISTRGDSTYYADSVKGRFTISRDNAKNTVYLQMNSQKPEDTAVYYCAAERPFWEYDYWGQGTQVTVSS | low polyreactivity |
| QVQLVESGGGLVQAGGSLRLSCAAYGLTFYFYAMGWYRQAPGKERELVAAIDWGGGSTYYADSVKGRFTISRDNAKNTVYLQMNSLKPEDTAVYYCAARGYYYNYDVNYWGQGTQVTVSS | low polyreactivity |
| QDQLVESGGGLVQAGGSLRLSCAASGRTFVGYAMGWYRQAPGKERELVAAITSGGRTNYADSVKGRCTISRDNAKNTVYLQMTSLKPEDTAVYYCNARTRHRGQIALDYWGQGTQVTVSS | high polyreactivity |
| QVQLVESGGGLVQARGSLRLICAASGRIFPDYGMGWYRQAPGKESEFDAVIDWIGVSTYYADSVKGRFTISRDNAKNTVYLQINSLKPEDTAVYYCNAEYAFPSPKSSLDYWGQGTQVTVSS | low polyreactivity |
| QVQLVESAGGLVQAGGSLRLSCAASGRIFYYAMGWYRQAPGKEREFVAAISGSGGSTNYADSVKGRFTISRDNAKNTVYLQMNSLKPEDTAVYYCNAESWSWGFIYEYEYWGQGTQVTVSS | high polyreactivity |
| QVQLVESGGGLVQAGGSLRLSCAASGSIFVGYAMGWYRLAPGKERELVASITNGDSTNYADSVKGRFTISRDNAKNTVYLQMNSLKPEDTAVYYCAADYYSFHPSGWYGYEYWGQGTQVTVSS | low polyreactivity |
| QVQLVESGGGLVQAGGSLRLSCAASGRIFLSYAMGWYRQAPGKEREFVAAITSSGGSTSYADSVKGRFTISRDNAKNTVYLQMNSLKPEDTAVYYCNARAYIFGQLKYDYWGQGTQVTVAS | low polyreactivity |
| QVQLVESGGGLVQAGGSLRLSCAASGRIFNPNVMGWYRQAPGKERELVAAISWSGDTTYYADSVKWRFTISRDNAKNTVYLQMNSLKPEDTEVYYCATESDGYAYENYEYWGQGTQVTVSS | high polyreactivity |
| QVQLVESGGGLVHAGGSLRLSCSPSVSIFNTYAMGWYRQAPGKERELVAGITKTGSPTYYADSVKGRFTISRDIAKNTFYLQMNSLKPEDTAVYYCNARIWPRSYRYDYWGQGTQVTVSS | high polyreactivity |
| QVQLVESGGGLVQAGGSLRLSCAASGRTFYNAMGWYRQAPGKERELVAAITTGGGTKYADSVKGRFTISRDNAKNTVYLQMNSLKPEDTAVYYCNTDEWYHFYHGAHKYDYWGQGTQVTVSS | low polyreactivity |
| QVQLVESGGGLVQAGGSLRLSCAASGSIIYLYAMGWYRQAPGKERELVAAINDDAGSTYYADSVKGRFTISRDNAKNTVYLQMNSLKPEDTAVYYCNAGSRSTEYDYWGQGTQVTVSS | low polyreactivity |
| QVQLVESGGGLVQAGGSLRLSCAASGNIFLYYAMGWYRQAPGKERELVADIDSSGASTYYADSVKGRFTISRDNAKNTVYLQMNSLKPEDTAVYYCATEDFRTDTGMYYWGQGTQVTVSS | low polyreactivity |
| QVQLVESGGGLVQAGGSLRLSCAASGSTLWYYAMGWYRQAPGKERELVADITSSGNTNYADSVKGRFTISRDNAKNTVYLQMISLKPEDTAVYYCAADVTKYHDGHEYDYWGQGTQVTVSS | low polyreactivity |
| QVQLVESGGCLVQAGGSLRLSCAASGFTFGRYVMGWYRQAPGKERELVAGINQSGGRTNYADSVKGRFTISRDNAKNTVYLQMNSLKPEDTAVYYCAALRSWRKTGGAQRYWYDYWGQGTQVTVSS | high polyreactivity |
| QVQLVESGGGLVQAGGSLRLSCAASGSTFRRYAMGWYRQAPGKERELVAAITRRGGSTYYADSVKGRFTISRDNAKNTVYLQMNSLKPEDTAVYYCNAVPVVRAGHGYDSWGQGTQVTVSS | high polyreactivity |
| QVQLVESGGGLVQARGSLRLSCAASGITFSRNVMGWYRQAPGKERELVAAISRSGGRTYYADSVKGRFTISRDNAKNTVYLQMNSLKPEVTAVYYCNRDIGGTTVLDDYCGQGTQVTVSS | low polyreactivity |
| KFQLVESGGGLVQAVGSLRLSCDASGRTFYYYDMGWYRQAPGKERELVAAITWDGGRTYYADSVMGRFTISRDNAKNTVYLQMNSLKPEDTAVYYCNADDFFEILGECTLMDYWGQGTQVTVSS | low polyreactivity |
| QLQLVESGGGLVQAGGSLRLSCAASGSIFGDNAMGWYRQAPGKERELVAAISSSGGSTYADSVKGRFTISRDNAKNTVYLQMNSLKPEDTAVYYCATQIAWGTYVINPQMDYWGQGTQVTVSS | low polyreactivity |
| QVQLVESGGGLVQAGGSLRLSCAASGYIFPKNAMGWYRQAPGKERELVAAITGSGGSTYYADSVKGRFTISRDNAKNTVYLQMNSLKPEDTAVYYCAKRSWIEYDYWGQGTQVTVSS | low polyreactivity |
| QVQLVESGGGLVQAGGSLRLSCAASGFIFAYNAMGWYRQAPGKEREFVAAISRSGGSTRYADSVKGRFTISRDNAKNTVYLQMNSLKPEDTAVYYCAARSGSWGQGTQVTVSS | high polyreactivity |
